Experimental data from patent US20170174776A1.

Assays:
[1] = molecular target: fusion protein of the human transferrin receptor extracellular domain linked to human IgG1 Fc (human) (UniProt P02786); assay: ELISA, coated human TfR ECD-Fc, pH 5.5
[2] = molecular target: fusion protein of the human transferrin receptor extracellular domain linked to human IgG1 Fc (human) (UniProt P02786); assay: ELISA, coated human TfR ECD-Fc, pH 7.4
[3] = molecular target: fusion protein of the human transferrin receptor extracellular domain linked to human IgG1 Fc (human) (UniProt P02786); assay: ELISA, coated human TfR ECD-Fc, pH 5.5 against pH 7.4

Chain of fusion protein of the human transferrin receptor extracellular domain linked to human IgG1 Fc (human) (P02786 89-760): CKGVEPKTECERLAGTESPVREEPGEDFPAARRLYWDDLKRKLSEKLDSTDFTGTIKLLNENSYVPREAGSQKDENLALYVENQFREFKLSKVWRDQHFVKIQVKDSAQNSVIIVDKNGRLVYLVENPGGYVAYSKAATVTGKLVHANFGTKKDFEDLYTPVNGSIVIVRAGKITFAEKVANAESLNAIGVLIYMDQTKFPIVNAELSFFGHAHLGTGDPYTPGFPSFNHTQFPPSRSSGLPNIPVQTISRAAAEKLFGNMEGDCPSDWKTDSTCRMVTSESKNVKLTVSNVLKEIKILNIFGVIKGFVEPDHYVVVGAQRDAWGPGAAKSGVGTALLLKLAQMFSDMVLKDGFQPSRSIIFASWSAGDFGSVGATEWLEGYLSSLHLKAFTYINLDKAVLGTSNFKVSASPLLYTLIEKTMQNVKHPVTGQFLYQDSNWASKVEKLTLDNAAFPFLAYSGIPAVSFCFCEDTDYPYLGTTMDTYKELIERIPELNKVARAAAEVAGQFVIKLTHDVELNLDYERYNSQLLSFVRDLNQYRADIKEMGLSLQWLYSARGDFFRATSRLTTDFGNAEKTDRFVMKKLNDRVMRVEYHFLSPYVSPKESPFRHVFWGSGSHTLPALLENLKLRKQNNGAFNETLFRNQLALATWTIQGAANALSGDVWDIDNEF

mAb MEM-75 (antibody) gave an EC50 [1] of 0.59 µg/mL.

With mAb MEM-189 (antibody) the EC50 [2] was 0.0642 µg/mL, the EC50 [1] was > 1 µg/mL and the ratio EC50 pH 5.5/EC50 pH 7.4 [3] was > 15.6.

For mAb OKT-9 (antibody), the EC50 [2] was 0.065 µg/mL, the EC50 [1] was 0.691 µg/mL and the ratio EC50 pH 5.5/EC50 pH 7.4 [3] was 10.6.
